This note sets out measurements from US20200231974A1 (published 2020).

The assay concerns the target T1, HCMV pp65 peptide on HLA-B*07:02 (human).
T1 peptide: TPRVTGGGAM
In words: multimer staining.

B1: HBD4.1.S9-7.E5 (SEQ0713 and SEQ0714) (TCR, V domains shown)
Valpha: AQKITQTQPGMFVQEKEAVTLDCTYDTSDQSYGLFWYKQPSSGEMIFLIYQGSYDEQNATEGRYSLNFQKARKSANLVISASQLGDSAMYFCAMRPYTGGFKTIFGAGTRLFVKA
Vbeta: EAQVTQNPRYLITVTGKKLTVTCSQNMNHEYMSWYRQDPGLGLRQIYYSMNVEVTDKGDVPEGYKVSRKEKRNFPLILESPSPNQTSLYFCASSTSPSTARYGYTFGSGTRLTVV
B1: the binding result is “recognises”.

B2: HBD4.1.S9-1.D5 (SEQ0707 and SEQ0708) (TCR, V domains shown)
Valpha: DAKTTQPPSMDCAEGRAANLPCNHSTISGNEYVYWYRQIHSQGPQYIIHGLKNNETNEMASLIITEDRKSSTLILPHATLRDTAVYYCIVRDRYNTGNQFYFGTGTSLTVIP
Vbeta: EAQVTQNPRYLITVTGKKLTVTCSQNMNHEYMSWYRQDPGLGLRQIYYSMNVEVTDKGDVPEGYKVSRKEKRNFPLILESPSPNQTSLYFCASSLGPSSYEQYFGPGTRLTVT
As to B2, the binding result is “recognises”.

B3: HBD4.1.S9-7.C5 (SEQ0715 and SEQ0716) (TCR, V domains shown)
Valpha: AQSVAQPEDQVNVAEGNPLTVKCTYSVSGNPYLFWYVQYPNRGLQFLLKYITGDNLVKGSYGFEAEFNKSQTSFHLKKPSALVSDSALYFCAVRSRMDSSYKLIFGSGTRLLVRP
Vbeta: DTGVSQNPRHKITKRGQNVTFRCDPISEHNRLYWYRQTLGQGPEFLTYFQNEAQLEKSRLLSDRFSAERPKGSFSTLEIQRTEQGDSAMYLCASSPPDAAYNEQFFGPGTRLTVL
With B3, the binding result was “recognises”.

B4: HBD4.1.S9-5.E3 (SEQ0717 and SEQ0718) (TCR, V domains shown)
Valpha: SQQGEEDPQALSIQEGENATMNCSYKTSINNLQWYRQNSGRGLVHLILIRSNEREKHSGRLRVTLDTSKKSSSLLITASRAADTASYFCATELRMDSSYKLIFGSGTRLLVRP
Vbeta: DTGVSQNPRHKITKRGQNVTFRCDPISEHNRLYWYRQTLGQGPEFLTYFQNEAQLEKSRLLSDRFSAERPKGSFSTLEIQRTEQGDSAMYLCASSLREGRLPETQYFGPGTRLLVL
On to B4, for which the binding result was “recognises”.

B5: HBD4.1.S9-2.A6 (SEQ0709 and SEQ0710) (TCR, V domains shown)
Valpha: AQKITQTQPGMFVQEKEAVTLDCTYDTSDQSYGLFWYKQPSSGEMIFLIYQGSYDEQNATEGRYSLNFQKARKSANLVISASQLGDSAMYFCAMREGMDSSYKLIFGSGTRLLVRP
Vbeta: DTGVSQNPRHKITKRGQNVTFRCDPISEHNRLYWYRQTLGQGPEFLTYFQNEAQLEKSRLLSDRFSAERPKGSFSTLEIQRTEQGDSAMYLCASSLHDRGARTEAFFGQGTRLTVV
In the case of B5, the binding result is recorded as “recognises”.
